Where no end group is shown, it is not given here.
Legend:
[1] = biological target: T1, peptide (mNPTXR) representing the mouse NPTXR epitope space (mouse, also: biotinylated, position not given here); assay: ELISA, biotinylated mNPTXR peptide captured by streptavidin, antibody titrated from 10 ug/ml, anti-human IgG Fc-HRP detection
T1 construct: Immobilized on the ELISA plate by streptavidin capture; also called Bio-mNPTXR; Strep + Bio-mNPTXR
T1 peptide: CESGLPRGLQDAGPRRDT

[2] = biological target: T2, recombinant human NPTXR (rhNPTXR; Ala24 to Ala500 of Acc no. #O95502) (human, UniProt O95502 24-500); assay: ELISA, rhNPTXR immobilized on plate, antibody titrated from 10 ug/ml, anti-human IgG Fc-HRP detection
T2 construct: range 24-500; Recombinant protein immobilized on the ELISA plate
T2 sequence (looked up): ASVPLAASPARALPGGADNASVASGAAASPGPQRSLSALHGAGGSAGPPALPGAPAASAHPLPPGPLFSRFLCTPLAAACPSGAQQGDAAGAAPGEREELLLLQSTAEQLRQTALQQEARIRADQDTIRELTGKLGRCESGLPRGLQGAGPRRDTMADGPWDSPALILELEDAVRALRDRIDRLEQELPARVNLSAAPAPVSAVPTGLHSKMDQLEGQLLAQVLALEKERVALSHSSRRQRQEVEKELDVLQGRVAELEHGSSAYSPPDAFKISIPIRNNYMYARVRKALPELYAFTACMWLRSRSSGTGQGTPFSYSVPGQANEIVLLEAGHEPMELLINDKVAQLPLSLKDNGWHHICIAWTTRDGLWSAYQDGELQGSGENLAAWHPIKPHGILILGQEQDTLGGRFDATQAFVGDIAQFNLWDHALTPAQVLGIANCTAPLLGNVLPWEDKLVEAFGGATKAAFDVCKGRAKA

EC50 [1]: 0.0309 µg/mL
EC50 [2]: 0.0271 µg/mL
B1: YB-800 (antibody, human IgG1, V domains shown)
VH: QVQLVQSGAEVKKPGASVKVSCKASGYTFTNYGMNWVRQAPGQRLEWMGWINTDIGEPTYSQKFQGRVTITRDTSASTAYMELSSLRSEDTAVYYCAREMDVWGQGTTVTVSS
VL: DIQMTQSPSSLSASVGDRVTITCRASQSISDYLHWYQQKPGKAPKLLIKYVSHSISGVPSRFSGSGSGTDFTLTISSLQPEDFATYYCLNGHSFPFTFGGGTKVEIK

Source: patent EP4635983A1 (Ymmunobio AG, dated 2025)
